{
  "source": "patent US8304519B2",
  "about": "“Compositions and methods for modulating dopamine neurotransmission” (Centre for Addiction and Mental Health, priority 2005, dated 2012)",
  "key": {"[1]": {"target": "T1, D2-DAT direct interaction (Homo sapiens, UniProt P14416)", "T1 construct": "made in house; host or cells: bacteria (GST fusion, pGEX4T-3)", "T1 sequence (P14416 271-373)": "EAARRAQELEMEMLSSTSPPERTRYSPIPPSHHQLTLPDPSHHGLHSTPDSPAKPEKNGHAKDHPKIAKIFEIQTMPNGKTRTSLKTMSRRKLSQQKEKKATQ", "test": "In vitro binding assay, blockade of GST-DAT[NT1] binding to [35S]-D2[IL3-2] by peptides", "settings": "co-incubation with purified peptide", "procedure": "(§1) Glutathione beads carrying GST fusion proteins (DAT[NT1] (SEQ ID NO:7), DAT[NT2] (SEQ ID NO:9), DAT[NT3] (SEQ ID NO: 10)) or GST (10-20 μg each) alone was incubated with [35S]-methionine-labelled D2[IL3-2] probe (SEQ ID NO:3) respectively. The beads were then washed 4-6 times with PBS containing 0.5% Triton X-100 and eluted with 10 mM glutathione elution buffer. Eluates were separated by SDS-PAGE and visualized by autoradiography."}, "[35S]-D2[IL3-2]": {"target": "T2, [35S]-D2[IL3-2] (Homo sapiens, UniProt P14416)", "T2 construct": "made in house", "T2 sequence (P14416 271-373)": "T1 sequence (P14416 271-373)", "test": "In vitro binding assay of GST-DAT fusion proteins with [35S]-D2[IL3-2] probe", "settings": "autoradiography", "procedure": "as §1"}, "D2-DAT coupling": {"target": "T3, D2-DAT coupling (Homo sapiens, UniProt P14416)", "T3 construct": "expressed in transfected cells; host or cells: primary rat midbrain neuronal cultures, adenoviral infection", "T3 sequence (P14416 1-414 isoform P14416-2)": "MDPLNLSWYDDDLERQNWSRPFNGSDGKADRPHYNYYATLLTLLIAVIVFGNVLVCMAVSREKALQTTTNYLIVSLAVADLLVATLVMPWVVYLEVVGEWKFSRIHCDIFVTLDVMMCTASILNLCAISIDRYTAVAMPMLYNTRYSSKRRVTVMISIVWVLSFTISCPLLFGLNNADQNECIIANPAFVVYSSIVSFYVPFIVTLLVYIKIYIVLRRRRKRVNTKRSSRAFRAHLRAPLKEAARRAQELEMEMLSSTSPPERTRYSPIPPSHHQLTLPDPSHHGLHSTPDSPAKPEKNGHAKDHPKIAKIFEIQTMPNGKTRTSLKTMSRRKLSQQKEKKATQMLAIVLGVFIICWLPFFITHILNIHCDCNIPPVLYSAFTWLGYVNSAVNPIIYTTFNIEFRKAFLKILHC", "test": "[3H]DA uptake in rat midbrain primary cultures infected with DAT and D2 adenovirus", "assay_type": "cell-based", "settings": "10 μM for 30 minutes, cultured neurons", "procedure": "Measurement of DA uptake was performed on intact cells as previously described (30). Briefly, 2-4 days following transfection in 24-well plates (˜2×10^5 cells seeded per well) medium was removed and wells were rinsed with 0.5 mL of uptake buffer (5 mM Tris, 7.5 mM HEPES, 120 mM NaCl, 5.4 mM KCl, 1.2 mM CaCl2, 1.2 mM MgSO4, 1 mM ascorbic acid, 5 mM glucose, pH 7.1). […] (final concentration) and incubated for 10 min at room temperature in a total volume of 0.5 mL. Nonspecific [3H] DA (37-53 Ci/mmol) uptake was defined in the presence of 10 μM mazindol. Wells were rinsed twice with 0.5 mL of uptake buffer and cells were solubilized in 0.5 mL of 1% SDS and collected to measure incorporated radioactivity using a Beckman liquid scintillation counter (LS 6000SC).\n(§2) Midbrain cultures from postnatal day 2 rats are prepared by dissection of ventrolateral sections of the mesencephalon (avoiding medial tissue regions) in ice-cold HBSS. Tissue is placed in cold neurobasal/B27 medium (Invitrogen) supplemented with 0.5 mM L-glutamine, and 10 ng/mL bFGF (culture medium). […] The single cell suspensions are counted with a hemocytometer for plating at desired densities onto poly-D-Lysine (100 ug/mL) coated tissue culture plates of varying formats or, onto coated glass cover-slips for microscopy. […]"}, "[2]": {"test": "Amphetamine-induced hyper-locomotor activity", "assay_type": "in vivo", "settings": "ip injection, 3 nmol/g", "procedure": "Tests of locomotor activity were conducted in four clear Plexiglas activity chambers (Med Associates Inc., St Albans, Vt.) measuring 43 cm long, 43 cm wide, and 30 cm high. An array of 16×16 photodetectors, spaced 2.5 cm apart, and positioned 2.5 cm above the floor of the chamber was used to detect horizontal locomotor activity as distance traveled. Prior to testing, all mice were first habituated to the apparatus by placing them in the activity chambers for 1 h on three consecutive days. On test days, mice were placed in the activity chamber for 1 h prior to receiving an IP injection of TAT (SEQ ID NO:14), TAT-DAT[NT1-1] (SEQ ID NO:12), or TAT-DAT[NT1-2] peptide (SEQ ID NO: 13). Locomotor activity was then measured for the next 180 min."}, "[3]": {"settings": "systemically injected; cited from earlier work"}, "D2 receptor [4]": {"target": "T4, D2 receptor (Homo sapiens, UniProt P14416)", "T4 sequence (P14416 1-414 isoform P14416-2)": "as above", "assay_type": "cell-based", "set-up": "expressed in transfected cells; host or cells: HEK-293 cells co-expressing D2 and DAT", "settings": "pre-incubation 150-200 ng/ml, HEK-293 cells co-expressing D2 and DAT", "procedure": "Measurement of DA uptake was performed on intact cells as previously described (30). Briefly, 2-4 days following transfection in 24-well plates (˜2×10^5 cells seeded per well) medium was removed and wells were rinsed with 0.5 mL of uptake buffer (5 mM Tris, 7.5 mM HEPES, 120 mM NaCl, 5.4 mM KCl, 1.2 mM CaCl2, 1.2 mM MgSO4, 1 mM ascorbic acid, 5 mM glucose, pH 7.1). […] Wells were rinsed twice with 0.5 mL of uptake buffer and cells were solubilized in 0.5 mL of 1% SDS and collected to measure incorporated radioactivity using a Beckman liquid scintillation counter (LS 6000SC)."}, "D2 receptor [5]": {"target": "T4, D2 receptor", "test": "cAMP accumulation in cells co-expressing D2 with DAT", "assay_type": "cell-based", "set-up": "expressed in transfected cells; host or cells: HEK-293 cells co-expressing D2 and DAT", "settings": "data not shown"}, "D2 receptor [6]": {"target": "T4, D2 receptor", "test": "DA uptake on D2 activation in cultured midbrain neurons infected with D2 and DAT adenoviruses", "assay_type": "cell-based, rat", "set-up": "expressed in transfected cells; host or cells: primary rat midbrain neuronal cultures, adenoviral infection", "procedure": "Measurement of DA uptake was performed on intact cells as previously described (30). Briefly, 2-4 days following transfection in 24-well plates (˜2×10^5 cells seeded per well) medium was removed and wells were rinsed with 0.5 mL of uptake buffer (5 mM Tris, 7.5 mM HEPES, 120 mM NaCl, 5.4 mM KCl, 1.2 mM CaCl2, 1.2 mM MgSO4, 1 mM ascorbic acid, 5 mM glucose, pH 7.1). Cells were then preincubated in duplicate with the indicated concentrations of dopaminergic agents (10^−13 to 10^−4 M) 5 min prior to the addition of 0.25 mL of 20 nM [3H]DA (final concentration) and incubated for 10 min at room temperature in a total volume of 0.5 mL. Nonspecific [3H] DA (37-53 Ci/mmol) uptake was defined in the presence of 10 μM mazindol. Wells were rinsed twice with 0.5 mL of uptake buffer and cells were solubilized in 0.5 mL of 1% SDS and collected to measure incorporated radioactivity using a Beckman liquid scintillation counter (LS 6000SC).\nas §2, with “HBSS.” for “HBSS. Tissue is placed in cold neurobasal/B27 medium (Invitrogen) supplemented with 0.5 mM L-glutamine, and 10 ng/mL bFGF (culture medium).”"}, "D2 receptor [7]": {"target": "T4, D2 receptor", "test": "Cell-ELISA of DAT membrane expression on D2 activation in cultured midbrain neurons", "assay_type": "cell-based, rat", "set-up": "expressed in transfected cells; host or cells: primary rat midbrain neuronal cultures, adenoviral infection", "settings": "cultured midbrain neurons infected with D2 and DAT adenoviruses", "procedure": "Cell-ELISA assays (colorimetric assays) were done essentially as previously described (Lee et al., 2002a). Neurons or HEK-293T cells were transiently transfected with the indicated cDNA constructs by the Lipofectamine 2000 (InVitrogen) method (6-10 μg of each indicated cDNA per 7.5×10^6 cells), and equally distributed to two 6-well plates (35 mm/well), and grown for 2-4 days. The same density of co-transfected cells were fixed in 4% paraformaldehyde for 10 min in the absence (non-permeabilized conditions) or the presence (permeabilized conditions) of 1% Triton X-100. Cells were incubated with DAT antibody against the extracellular loop (Chemicon) for the purpose of labeling the proteins on the cell surface under non-permeabilized conditions or the entire transporter pool under permeabilized conditions. […] The cell surface expression of DAT was presented as the ratio of colorimetric readings under non-permeabilized conditions to those under permeabilized conditions. […]\nas §2, with “HBSS.” for “HBSS. Tissue is placed in cold neurobasal/B27 medium (Invitrogen) supplemented with 0.5 mM L-glutamine, and 10 ng/mL bFGF (culture medium).”"}},
  "data": [
    {"substance": "DAT[NT1-1] (M1-V15) peptide: purified peptide DAT M1-V15, MSKSKCSVGLMSSVV (SEQ ID NO:2) (Human dopamine transporter protein (DAT[NT1-1] M1-V15))", "values": [
      {"measurement": "disruption of the interaction between [35S]-D2[IL3-2] and GST fused DAT[NT1]", "setting": "[1]", "value": "disrupted"}
    ]},
    {"substance": "GST fused DAT[NT1]: GST fusion protein encoding DAT M1-P26, MSKSKCSVGLMSSVVAPAKEPNAVGP (SEQ ID NO:7)", "values": [
      {"measurement": "hybridization (direct binding) with [35S]-D2[IL3-2]", "setting": "[35S]-D2[IL3-2]", "value": "hybridized"}
    ]},
    {"substance": "TAT-DAT[NT1-2] peptide: DAT[NT1-2] (A16-P26) peptide fused to HIV-1 TAT cell-membrane transduction domain (SEQ ID NO:13) (YGRKKRRQRRRAPAKEPNAVGP; HIV virus type 1 TAT protein fused to human dopamine transporter protein (TAT-DAT[NT1-2]))", "values": [
      {"measurement": "DAT-mediated DA uptake", "setting": "D2-DAT coupling", "value": "did not produce any effects"},
      {"measurement": "behavioural effects of amphetamine (hyper-locomotor activity)", "setting": "[2]", "value": "reduce"}
    ]},
    {"substance": "Tyr-Gly-Arg-Lys-Lys-Arg-Arg-Gln-Arg-Arg-Arg [TAT peptide]", "values": [
      {"measurement": "time after IP injection at which the blood-brain barrier is penetrated", "setting": "[3]", "value": 1, "unit": "h"}
    ]},
    {"substance": "pertussis toxin (PTX)", "values": [
      {"measurement": "blockade of quinpirole-induced decrease in DAT-mediated DA uptake", "setting": "D2 receptor [4]", "value": "blocked"},
      {"measurement": "functional block of the ability of the D2 receptor to inhibit cAMP accumulation", "setting": "D2 receptor [5]", "value": "confirmed"},
      {"measurement": "blockade of inhibition of DAT-mediated DA uptake by activation of D2 receptor", "setting": "D2 receptor [6]", "value": "blocked"},
      {"measurement": "blockade of inhibition of DAT membrane expression by activation of D2 receptor", "setting": "D2 receptor [7]", "value": "blocked"}
    ]}
  ]
}
